Values quoted from earlier work, collected in publication PMC2862573.

Biological target: CCR2 loop-2 peptide (Homo sapiens)

Substance: MCP-1 (from UniProt P13500)
- Kd: 22 µM
